Test results from patent publication US20150359847A1, “METHOD AND COMPOSITION FOR CONFERRING NEUROPROTECTION” (BLOOD SYSTEMS RESEARCH INSTITUTE, priority 2014, published 2015).

Tests used:
[1] = system: p-AKT(Ser473) in primary hippocampal neurons; experiment: Akt (Ser473) phosphorylation in primary hippocampal neurons (antibody array, western blot); format: cell-based, mouse; conditions: 1 μg/ml TIMP3, 15 mins
Method: (§1) SH-SY5Y cells were obtained from ATCC (Cat# CRL-2266, Manassas, Va.) and were cultured in DMEM and 10% FBS up to passage 10. For differentiation of SH-SY5Y cells into a neuronal phenotype, cells were first plated in DMEEM+10% FBS for 24 hrs before exchanging media in DMEM+1% FBS 10 μM retinoic acid. Differentiation was performed for 3 days before experimentation. Hippocampal neurons were prepared according to the protocol by Beaudoin et al. (Nature Protocols 2012; 7(9):1741-1754) with minor modifications. In brief, after trypsin digestion of hippocampi isolated from P1 mouse pups single cell suspensions was created by trituration and plated onto Biocoat™ poly-D-lysine coated 12-well plates (Cat#354470, BD Biosciences, San Jose, Calif.). […]
Pathscan Antibody™ array kits were purchased from Cell Signaling Technologies (Danvers, Mass.). PathScan® RTK signaling antibody array kit (Fluorescent Readout, Cat#7949) and PathScan™ Akt signaling antibody array kit (Fluorescent Readout, Cat#9700) were performed as per manufacturer's instructions. Imaging was performed on a LI-COR Odyssey™ infrared scanner and pixel densities measured by in house LI-COR Image™ suite software. […]
Lysates was analyzed in conjuncture with the LI-COR Odyssey™ infra-red imaging system. […] After further wash steps images were obtained using a LI-COR™ Odyssey scanner and quantified using LI-COR™ Image Studio software. […]

[2] = system: S6 Ribosomal Protein (S235/236) in SH-SY5Y cells; experiment: S6 Ribosomal Protein (S235/236) phosphorylation in SH-SY5Y cells; format: cell-based, human; conditions: 1 μg/ml TIMP3, 15 mins
Method: as §1, with “Calif.). 2 pups were used per well and cell suspensions were incubated for 10 minutes per well for a total of 6 wells. The serial incubation allowed for variation in cell densities applicable to different experiments but also contributed to the reduction in non-neuronal cells.” for “Calif.).”
Pathscan Antibody™ array kits were purchased from Cell Signaling Technologies (Danvers, Mass.). PathScan® RTK signaling antibody array kit (Fluorescent Readout, Cat#7949) and PathScan™ Akt signaling antibody array kit (Fluorescent Readout, Cat#9700) were performed as per manufacturer's instructions. Imaging was performed on a LI-COR Odyssey™ infrared scanner and pixel densities measured by in house LI-COR Image™ suite software.
Cell lysates for western blotting were prepared with RIPA buffer (Cat#89900. Thermofisher Scientific, Rockford, Ill.) supplemented with phosphatase inhibitor cocktail 2 (Cat# P5726. Sigma, St Louis, Mo.), phosphatase inhibitor cocktail 3 (Cat# P0044. Sigma, St Louis, Mo.) and complete protease inhibitor (Cat#1862209. Thermofisher Scientific, Rockford, Ill.). […] Protein content was quantified with a Pierce BCA protein assay kit per manufacturer's instructions (Cat#23225. Thermofisher Scientific, Rockford, Ill.).
Lysates was analyzed in conjuncture with the LI-COR Odyssey™ infra-red imaging system. […]

[3] = system: SH-SY5Y cells; experiment: Colorimetric neurite outgrowth assay; format: cell-based, human; conditions: 1 μg/ml TIMP3, 48 hrs
Method: Neurite Outgrowth Assay Kit™ 3 μm (Cat# NS220) and AXIS™ Axon Isolation Devices, 150 μm, Plasma Bonded chamber slides (Cat# AX15005PB) were purchased from (EMD Millipore, Billerica, Mass.). For neurite outgrowth assays SH-SY5Y cells were initially differentiated for 24 hrs at a density of 4×10^5 cells per well of a 6-well plate. Cells were then dissociated using kit supplied dissociation buffer and 3×10^5 cells were replated onto transwell inserts. […] Assay was conducted per manufacturer's instructions.

[4] = molecular target: MMP-9 (Homo sapiens, UniProt P14780); experiment: SensoLyte Fluorimetric MMP-9 Activity Assay; format: biochemical; conditions: dose response; 1 μg/ml TIMP3
Source text: SensoLyte Fluorimetric MMP-2 Activity Assay Kit™ (Cat#71151) and SensoLyte Fluorimetric MMP-9 Activity Assay Kit™ (Cat#71155) were purchased from AnaSpec (Fremont, Calif.) and performed per manufacturer's instructions.

[5] = system: β3-tubulin / dendritic branches in the molecular layer of the dentate gyrus; experiment: β3-tubulin western blot and staining of ipsilateral hippocampus 7 days post-TBI; format: in vivo, mouse; conditions: TIMP3 60 μg/kg IV x3; day 7 post-TBI
Source text: The mouse controlled cortical impact (CCI) injury model was used as previously described. In brief, mice were anesthetized with 5% isoflurane and 1:1 O2:N2 mixture. Animals were mounted on a stereotaxic frame and were secured by ear bars and an incisor bar. Anesthesia was maintained with 2.0% isoflurane and 1:1 O2:N2 mixture. A 5-mm-diameter craniotomy was made midway between bregma and lambda on the right side, with the medial edge of the craniotomy 1 mm lateral to midline. Injury was produced using a magnetic impactor mounted at an angle of 110° from the vertical plane. A single impact at a velocity of 4+/−0.2 m/s was used inflict a moderate to severe injury (1.2-1.3 mm impact depth). After injury, the incision was closed. Sham animals underwent identical surgeries except for impact injury. Core body temperature was monitored using a rectal thermometer and maintained at 36.8° C.-37.2° C. with a heating pad throughout the procedure. For treatments, TIMP3 (60.0 μg/kg) or vehicle control (PBS) administration was performed at 2, 24, and 48 hrs after injury via tail vein injections in a total volume of 125 μl. Animal research was performed with approval of the Institutional Animal Care and Use Committee at ISIS Services LLC (San Carlos, Calif., USA). […]

Chain of MMP-9 (P14780 94-707, species assumed): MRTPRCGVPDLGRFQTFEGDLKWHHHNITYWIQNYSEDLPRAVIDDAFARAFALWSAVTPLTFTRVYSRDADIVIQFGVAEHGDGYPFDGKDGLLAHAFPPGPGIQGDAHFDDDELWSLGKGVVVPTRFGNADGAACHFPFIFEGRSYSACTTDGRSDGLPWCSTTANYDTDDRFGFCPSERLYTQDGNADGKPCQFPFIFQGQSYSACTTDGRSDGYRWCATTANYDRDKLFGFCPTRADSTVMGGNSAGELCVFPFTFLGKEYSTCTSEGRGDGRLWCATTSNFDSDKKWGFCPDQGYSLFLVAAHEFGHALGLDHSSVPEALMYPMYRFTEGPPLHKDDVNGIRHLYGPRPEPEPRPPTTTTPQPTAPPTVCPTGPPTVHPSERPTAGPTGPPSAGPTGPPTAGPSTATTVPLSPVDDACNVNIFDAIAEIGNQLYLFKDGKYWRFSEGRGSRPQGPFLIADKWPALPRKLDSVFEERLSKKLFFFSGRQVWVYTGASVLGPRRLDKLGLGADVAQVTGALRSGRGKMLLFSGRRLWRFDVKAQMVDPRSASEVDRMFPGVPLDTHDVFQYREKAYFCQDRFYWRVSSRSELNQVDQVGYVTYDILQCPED

B1: TIMP3: Recombinant tissue inhibitor of matrix metalloproteinase-3, a soluble protein released by MSCs, obtained from Amgen Inc. (protein)
chain: CTCSPSHPQDAFCNSDIVIRAKVVGKKLVKEGPFGTLVYTIKQMKMYRGFTKMPHVQYIHTEASESLCGLKLEVNKYQYLLTGRVYDGKMYTGLCNFVERWDQLTLSQRKGLNYRYHLGCNCKIKSCYYLPCFVTSKNECLWTDMLSNFGYPGYQSKHYACIRQKGGYCSWYRGWAPPDKSIINATDP
p-AKT(Ser473), fluorescent antibody signaling array [1]: activates p-AKT(Ser^473) | p-AKT(Ser473), western blot [1]: activates p-AKT(Ser^473) | S6 Ribosomal Protein (S235/236) activation, western blot [2]: activates S6 Ribosomal Protein (S^235/236) | S6 Ribosomal Protein (S235/236) phosphorylation, antibody array [2]: phosphorylates mTORC1 pathway target S6 Ribosomal Protein (S^235/236) | neurite outgrowth (colorimetric) [3]: promotes increased neurite outgrowth | MMP-9 inhibition (Sensolyte FRET assay) [4]: can fully inhibit | number of β3-tubulin+ve dendritic branches >50 μm in the molecular layer [5]: attenuated by TIMP3 treatment | β3-tubulin protein in ipsilateral hippocampus, western blot [5]: attenuated by TIMP3 treatment
